In this assay the target is CXCR4 ligand. The assay is described as follows: cell-based or functional assay.

Bridges are numbered along the chain shown (N, C = ends). Where no end group is shown, it is not given here. [ ]: non-standard residue; d: D form. Cit = NC(=O)NCCC[C@H](N)C(=O)O; Nal = naphthylalanine

B1: TC14018 (peptide)
peptide: XRXCYRKXPYRXCR
modifications: Cit at 1; Nal at 3; D-Cit at 8; Cit at 12; C-terminal amide (NH2); Cys4-Cys13 disulfide (cyclised by air oxidation)
Consider B1, for which the “EC50 (nM): anti-HIV activity, concentration where MT-4 cell death by HIV-1 (IIIB) infection is inhibited by 50% (MTT method)” value was determined as 1.2 nM.

B2: TC14011 (peptide)
peptide: RRXCYXKXPYRXCR
modifications: Nal at 3; Cit at 6; D-Cit at 8; Cit at 12; C-terminal OH; Cys4-Cys13 disulfide (cyclised by air oxidation)
Consider B2, for which the “EC50 (nM): anti-HIV activity, concentration where MT-4 cell death by HIV-1 (IIIB) infection is inhibited by 50% (MTT method)” value came out at 0.5 nM.

B3: TC14005 (peptide)
peptide: RRXCYRKXPYRXCR
modifications: not fully specified; Nal at 3; D-citrulline at 8; L-citrulline at 12; C-terminal OH; Cys4-Cys13 disulfide (cyclised by air oxidation)
For the molecule B3, the “EC50 (nM): anti-HIV activity, concentration where MT-4 cell death by HIV-1 (IIIB) infection is inhibited by 50% (MTT method)” value is 4 nM.

In the case of RR[Nal]CY[Cit]K[dK]PYR[Cit]CR-NH2 (disulfide 4-13) [TN14003], the “EC50 (nM): anti-HIV activity, concentration where MT-4 cell death by HIV-1 (IIIB) infection is inhibited by 50% (MTT method)” value was 0.6 nM.

B4: TC14020 (peptide)
peptide: RRXCYRKXPYXXCR
modifications: Nal at 3; D-Cit at 8; Cit at 11 and 12; C-terminal OH as printed; Cys4-Cys13 disulfide (cyclised by air oxidation)
In the case of B4, the “EC50 (nM): anti-HIV activity, concentration where MT-4 cell death by HIV-1 (IIIB) infection is inhibited by 50% (MTT method)” value is 2.7 nM.

B5: TN14005 (peptide)
peptide: RRXCYRKXPYRXCR
modifications: Nal at 3; D-Cit at 8; Cit at 12; C-terminal amide (NH2); Cys4-Cys13 disulfide (cyclised by air oxidation)
As for B5, the “EC50 (nM): anti-HIV activity, concentration where MT-4 cell death by HIV-1 (IIIB) infection is inhibited by 50% (MTT method)” value is 4.6 nM.

On to RR[Nal]CY[Cit]K[dK]PYR[Cit]CR-OH (disulfide 4-13) [TC14003], for which the “EC50 (nM): anti-HIV activity, concentration where MT-4 cell death by HIV-1 (IIIB) infection is inhibited by 50% (MTT method)” value is 2.8 nM.

B6: TC14012 (peptide)
peptide: RRXCYXKXPYRXCR
modifications: Nal at 3; L-citrulline at 6; D-citrulline at 8; L-citrulline at 12; C-terminal amide (NH2); Cys4-Cys13 disulfide (cyclised by air oxidation)
As to B6, the “EC50 (nM): anti-HIV activity, concentration where MT-4 cell death by HIV-1 (IIIB) infection is inhibited by 50% (MTT method)” value came to 0.4 nM.

For the origin of these results see patent US20100222256A1 (BIOKINE THERAPEUTICS, published 2010).
